The source of these data is patent publication US20250059282A1 (University of Texas, published 2025).

The target in experiment [1] is T1, Human PD-L1-HIS (human, UniProt Q9NZQ7 19-238).
T1 construct: also called HIS-tagged monovalent PD-L1; His-tagged human PD-L1; not shown: His tag
The experiment in a line: ForteBio, IgG, monovalent. For orientation: In BLI a coated tip is dipped into the sample, and binding shifts an interference pattern.

Experiment [2] addresses T2, Human PD-L2-HIS (human, UniProt Q9BQ51 20-220).
T2 construct: also called His-tagged human PD-L2; not shown: His tag
T2 sequence: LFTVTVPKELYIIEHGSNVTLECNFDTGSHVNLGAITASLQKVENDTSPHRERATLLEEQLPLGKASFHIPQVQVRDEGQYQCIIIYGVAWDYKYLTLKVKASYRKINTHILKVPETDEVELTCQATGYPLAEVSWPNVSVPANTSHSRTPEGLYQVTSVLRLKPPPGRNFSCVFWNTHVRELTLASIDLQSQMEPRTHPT
The experiment in a line: ForteBio, IgG, monovalent.

Experiment [3] concerns the target T1, Human PD-L1-HIS. Description: ForteBio Octet, IgG; column head says Avid.
The target of experiment [4] is T2, Human PD-L2-HIS. Description: ForteBio Octet, IgG, monovalent.
Experiment [5] has as its target T3, Cyno PD-L2-Fc (cynomolgus, UniProt A0A2K5U5Z4 20-220).
T3 construct: also called cynomolgus PD-L2; not shown: Fc
T3 sequence: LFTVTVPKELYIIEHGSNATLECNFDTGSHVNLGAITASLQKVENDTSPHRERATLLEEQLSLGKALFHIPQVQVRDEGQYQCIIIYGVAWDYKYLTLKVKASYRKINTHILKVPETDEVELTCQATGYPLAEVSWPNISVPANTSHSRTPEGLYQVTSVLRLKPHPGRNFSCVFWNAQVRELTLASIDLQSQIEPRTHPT
Description: ForteBio, IgG, avid.

The target in experiment [6] is T4, Cyno PD-L1-Fc (cynomolgus, UniProt G7PSE7 19-238).
T4 construct: also called cynomolgus PD-L1
The experiment in a line: ForteBio, IgG, avid.

Experiment [7] has as its target T5, Mouse PD-L1-Fc (mouse, UniProt Q9EP73 19-239, limits assumed).
T5 construct: also called murine PD-L1; not shown: Fc
The experiment in a line: ForteBio, IgG, avid.

Experiment [8] concerns the target T6, Mouse PD-L2-Fc (mouse, UniProt Q9WUL5 20-219, limits assumed).
T6 construct: also called murine PD-L2; not shown: Fc
T6 sequence (looked up): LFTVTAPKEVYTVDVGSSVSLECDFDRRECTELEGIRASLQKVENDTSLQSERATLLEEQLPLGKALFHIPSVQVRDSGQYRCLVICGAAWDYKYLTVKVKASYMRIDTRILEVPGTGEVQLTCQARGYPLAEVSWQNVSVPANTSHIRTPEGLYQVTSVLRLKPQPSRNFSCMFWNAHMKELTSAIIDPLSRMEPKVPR
The experiment in a line: ForteBio, IgG, avid.

Experiment [9] deals with T3, Cyno PD-L2-Fc. The experiment in a line: ForteBio Octet, IgG, avid.
For experiment [10], the target named is T4, Cyno PD-L1-Fc. Description: ForteBio Octet, IgG, avid.
Experiment [11] deals with T5, Mouse PD-L1-Fc. Description: ForteBio Octet, IgG, avid.
The target in experiment [12] is T6, Mouse PD-L2-Fc. The experiment in a line: ForteBio Octet, IgG, avid.
Experiment [13] addresses T7, human PD-L2 on CHO cells (human, UniProt Q9BQ51 20-273).
T7 sequence: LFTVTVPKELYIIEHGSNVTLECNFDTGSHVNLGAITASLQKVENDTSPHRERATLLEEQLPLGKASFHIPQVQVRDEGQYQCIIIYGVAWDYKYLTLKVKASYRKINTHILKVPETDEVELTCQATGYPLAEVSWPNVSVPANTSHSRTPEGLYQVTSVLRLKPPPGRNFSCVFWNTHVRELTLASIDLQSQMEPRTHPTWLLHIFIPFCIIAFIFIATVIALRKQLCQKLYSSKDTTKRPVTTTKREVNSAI
Description: cell-based or functional assay.

Experiment [14] addresses T8, human PD-L1 on CHO cells (human, UniProt Q9NZQ7 19-290). Description: cell-based or functional assay.
Experiment [15] deals with T1, Human PD-L1-HIS. The experiment in a line: ForteBio Octet, IgG; column head says Avid; IgG against Human PD-L1-HIS (head says Avid), not Fab against PD-L1-Fc.
Experiment [16] has as its target T1, Human PD-L1-HIS. The experiment in a line: ForteBio, IgG, monovalent. The source holds these as a separate data set.
Experiment [17] has as its target T2, Human PD-L2-HIS. The experiment in a line: ForteBio, IgG, monovalent. The source holds these as a separate data set.
The target in experiment [18] is T3, Cyno PD-L2-Fc. The experiment in a line: ForteBio, IgG, avid. This is another data set of the same source.
Experiment [19] concerns the target T4, Cyno PD-L1-Fc. The experiment in a line: ForteBio, IgG, avid. This is another data set of the same source.
Experiment [20] concerns the target T5, Mouse PD-L1-Fc. Description: ForteBio, IgG, avid. This is another data set of the same source.
The target in experiment [21] is T6, Mouse PD-L2-Fc. The experiment in a line: ForteBio, IgG, avid. This is another data set of the same source.
Experiment [22] concerns the target T7, human PD-L2 on CHO cells. The experiment in a line: cell-based or functional assay. This is another data set of the same source.
The target in experiment [23] is T8, human PD-L1 on CHO cells. The experiment in a line: cell-based or functional assay. This is another data set of the same source.
The target in a further experiment is T9, Human PD-L2-Fc (human, UniProt Q9BQ51 20-220).
T9 construct: also called dimeric PD-L2; PD-L2 (dimeric ligand); not shown: human IgG1 Fc constant region
T9 sequence: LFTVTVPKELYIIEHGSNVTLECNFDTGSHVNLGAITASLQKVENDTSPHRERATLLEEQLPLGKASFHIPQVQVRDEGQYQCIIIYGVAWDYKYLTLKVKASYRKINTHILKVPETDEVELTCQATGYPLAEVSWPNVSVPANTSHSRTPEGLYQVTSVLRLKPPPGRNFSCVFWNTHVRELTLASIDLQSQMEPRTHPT
Description: ForteBio Octet, IgG, avid.

The next experiment deals with T10, Human PD-L1-Fc (human, UniProt Q9NZQ7 19-238).
T10 construct: also called dimeric PD-L1; PD-L1 (dimeric ligand); not shown: human IgG1 Fc constant region
The experiment in a line: ForteBio Octet, IgG, avid.

T4 sequence (G7PSE7 entry or part of it limits assumed): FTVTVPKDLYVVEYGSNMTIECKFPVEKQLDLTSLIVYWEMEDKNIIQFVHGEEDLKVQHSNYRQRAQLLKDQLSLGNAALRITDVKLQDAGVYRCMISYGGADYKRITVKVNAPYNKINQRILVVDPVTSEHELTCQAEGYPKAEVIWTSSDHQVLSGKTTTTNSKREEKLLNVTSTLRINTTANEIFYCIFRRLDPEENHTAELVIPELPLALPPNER
T5 sequence (Q9EP73 19-239 limits assumed): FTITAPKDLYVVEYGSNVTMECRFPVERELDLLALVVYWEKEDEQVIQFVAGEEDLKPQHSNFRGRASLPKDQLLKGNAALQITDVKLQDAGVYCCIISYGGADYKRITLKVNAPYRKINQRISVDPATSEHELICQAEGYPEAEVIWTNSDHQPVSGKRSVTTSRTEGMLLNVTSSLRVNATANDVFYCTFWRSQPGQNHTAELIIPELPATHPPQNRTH
T1 sequence (Q9NZQ7 19-238 limits assumed): as the sequence (G7PSE7 entry or part of it limits assumed) above, with T33A, S34A, N62S, Q68R, R82Q, L173F, A185T, I192T, L215H counted along it
T8 sequence (Q9NZQ7 19-290 limits assumed): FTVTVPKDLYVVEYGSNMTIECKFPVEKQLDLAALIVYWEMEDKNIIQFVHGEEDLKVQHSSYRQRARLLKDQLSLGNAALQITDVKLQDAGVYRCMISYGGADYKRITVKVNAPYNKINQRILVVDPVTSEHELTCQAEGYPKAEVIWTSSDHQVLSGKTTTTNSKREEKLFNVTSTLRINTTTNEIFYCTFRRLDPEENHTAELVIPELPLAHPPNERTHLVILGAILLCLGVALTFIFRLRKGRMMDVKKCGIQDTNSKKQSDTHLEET
T10 sequence (Q9NZQ7 19-238 limits assumed): as the sequence (G7PSE7 entry or part of it limits assumed) above, with T33A, S34A, N62S, Q68R, R82Q, L173F, A185T, I192T, L215H counted along it

B1: BiPDL4-34 (antibody, V domains shown)
VH: QVQLVESGGGVIQPGRSLRLSCAASGFTFSAYLMHWVRQAPGKGLEWVAAIGYDGMNKYYADSVKGRFTISRDNSKNTLYLQMNSLRAEDTAVYYCARAGIEYSYAYTDYWGQGTLVTVSS
VL: EIVLTQSPGTLSLSPGERATLSCRASQFVYSSDLAWYQQKPGQAPRLLIYGASARAAGIPDRFSGSGSGTDFTLTISRLEPEDFAVYYCMQFGWWPPRTFGGGTKVEIK
notes: Fourth generation, IgG
In the case of B1, the Kd with Human PD-L1-HIS [1] was 6.85 nM; in the experiment with Human PD-L2-HIS [2] it was 0.932 nM; with Human PD-L1-HIS [3], 2.17 nM; with Human PD-L2-HIS [4], 0.932 nM; with Cyno PD-L2-Fc [5] it was 0.739 nM; with Cyno PD-L1-Fc [6], 0.408 nM. The Kd with Mouse PD-L1-Fc [7] is 0.544 nM; with Mouse PD-L2-Fc [8], 5.69 nM; with Cyno PD-L2-Fc [9] it was 0.739 nM; with Cyno PD-L1-Fc [10], 0.408 nM; with Mouse PD-L1-Fc [11], 0.544 nM; with Mouse PD-L2-Fc [12], 5.69 nM.

B2: BiPDL4-14 (antibody, V domains shown)
VH: QVQLVESGGGVVQPGRSLRLSCAASGFTFDEYGMHWVRQAPGKGLEWVAVIGYDGLNKYYADSVKGRFTISRDNSKNTLYLQMNSLRAEDTAVYYCARAGIEYSYAYTDYWGQGTLVTVSS
VL: EIVLTQSPGTLSLSPGERATLSCRASQFVYSSDLAWYQQKPGQAPRLLIYGASTRKTGIPDRFSGSGSGTDFTLTISRLEPEDFAVYYCLQFGWWPPRTFGGGTKVEIK
notes: Fourth generation, IgG
As to B2, the “EC50 (read off the curve); Fold induction of luciferase, Promega: CHO-PD-L1/PD-L2 dual cells with PD-1 Jurkat reporter cells (PD-L1 and PD-L2 not separable)” value with human PD-L2 on CHO cells [13] and with human PD-L1 on CHO cells [14] was ~0.3 nM in each case. Besides, the Kd in the experiment with Human PD-L1-HIS [1] turned out to be 2.26 nM; with Human PD-L2-HIS [2], 0.738 nM; with Human PD-L2-HIS [4], 0.738 nM; with Cyno PD-L2-Fc [5], 0.64 nM; with Cyno PD-L1-Fc [6] it was 0.508 nM; in the experiment with Mouse PD-L1-Fc [7], 0.4 nM. Besides, the dissociation constant Kd was determined as 7.88 nM with Mouse PD-L2-Fc [8]; 0.64 nM with Cyno PD-L2-Fc [9]; 0.508 nM in the experiment with Cyno PD-L1-Fc [10]; 0.4 nM in the experiment with Mouse PD-L1-Fc [11]; 7.88 nM in the experiment with Mouse PD-L2-Fc [12]; 0.692 nM in the experiment with Human PD-L1-HIS [15].

B3: BiPDL3-14 (antibody, V domains shown)
VH: QVQLQQWGAGLLKPSETLSLTCAVYGGSLSGYPWSWIRQPPGKGLEWIGETDVSGWTDYNPSLKSRVTISVDTSKNQFSLKLSSVTAADTAVYYCARDGRRMGTPSFDIWGQGTMVTVSS
VL: DIQMTQSPSSVSASVGDRVTITCRASQGINSFLAWYQQKPGKAPKLLIYAASSLNSGVPSRFSGSGSGTDFTLTISSLQPEDFATYYCQKAVYFPPTFGGGTKVEIK
notes: IgG; also called ADI-37464; 37464
B3: the Kd with Human PD-L1-HIS [16] was 3.93 nM; with Human PD-L2-HIS [17], 0.684 nM; with Cyno PD-L2-Fc [18] it was 0.543 nM; in the experiment with Cyno PD-L1-Fc [19], 0.371 nM; in the experiment with Mouse PD-L1-Fc [20], 2.34 nM; with Mouse PD-L2-Fc [21] it was 0.533 nM. The “EC50 (read off the curve); Luc Activity, Promega CHO-PDL1/PD-L2 dual cells with NFAT-Luc Jurkat T cells (PD-L1 and PD-L2 not separable)” value with human PD-L2 on CHO cells [22] and with human PD-L1 on CHO cells [23] was ~2 nM each time.

B4: BiPDL3-13 (antibody, V domains shown)
VH: QVQLQQWGAGLLKPSETLSLTCAVYGGSLSGYPWSWIRQPPGKGLEWIGETDVSGWTDYNPSLKSRVTISVDTSKNQFSLKLSSVTAADTAVYYCARDGRRMGTPSFDIWGQGTMVTVSS
VL: DIQLTQSPSSVSASVGDRVTITCRASQGISSWLAWYQQKPGKAPKLLIYAASSLQSGVPSRFSGSGSGTDFTLTISSLQPEDFATYYCQQYVYFPPTFGGGTKVEIK
notes: Third generation, IgG
With B4, the Kd in the experiment with Human PD-L2-Fc is 0.431 nM; in the experiment with Cyno PD-L2-Fc [9], 0.688 nM; with Human PD-L1-Fc, 3.28 nM; in the experiment with Cyno PD-L1-Fc [10], 2.34 nM; in the experiment with Mouse PD-L2-Fc [12] it was 1.22 nM. In the experiment with Mouse PD-L1-Fc [11], the binding result is given as “no binding (tested: 100 nM antigen)”.

As usually defined, the Kd is the equilibrium constant for the complex coming apart. A high value points to a looser complex.
